Laboratory results reported in patent US20260146077A1 (US Dept. of Health and Human Services, published 2026).

Experiments:
Assay in all cases: cell-based or functional assay
[1] = molecular target: T1, SARS-CoV-2 spike protein, BA.1 (SARS-CoV-2, UniProt P0DTC2 14-1273)
[2] = molecular target: T2, SARS-CoV-2 spike protein, BA.2.12.1 (SARS-CoV-2, UniProt P0DTC2 14-1273)
[3] = molecular target: T1, SARS-CoV-2 spike protein, BA.1; remark: listed apart in the source
[4] = molecular target: T2, SARS-CoV-2 spike protein, BA.2.12.1; remark: listed apart in the source

B1: A23-58.1HC/58.1LC_94GLT (antibody, V domains shown)
VH: not shown
VL: EIVLTQSPGTLSLSPGERATLSCRASQSVSSSYLAWYQQKPGQAPRLLIYSASSRATGIPDRFSGSGSGTDFTLTISRLEPEDFAVYFCQQYGGLTWTFGQGTKVEIK
- BA.1 neutralization, fold improvement over A19-58.1 [1]: 7 fold
- pseudovirus neutralization IC50 [1]: 0.0137 µg/mL
- pseudovirus neutralization IC50 [2]: 0.025 µg/mL
- neutralization IC80 [3]: 0.0464 µg/mL
- neutralization IC80 [4]: 0.105 µg/mL
